Measurements taken from patent publication US20170182124A1, “FGF21 Derivatives and Uses Thereof” (Novo Nordisk A/S, priority 2014, published 2017).
Residue numbers refer to the chain shown, from its start. Marks after values point to notes of the source that are not given here.

B1: S{Beta-179}-[2-[2-[[2-[2-[2-[[2-[2-[2-[[(4S)-4-carboxy-4-(15-carboxypentadecanoyl-amino)butanoyl]amino]ethoxy]ethoxy]acetyl]amino]ethoxy]ethoxy]acetyl]amino]-ethylamino]-2-oxoethyl]-Ala[Gln121,Leu168, … (protein)
chain: HPIPDSSPLLQFGGQVRQRYLYTDDAQQTEAHLEIREDGTVGGAADQSPESLLQLKALKPGVIQILGVKTSRFLCQRPDGALYGSLHFDPEACSFRELLLEDGYNVYQSEAHGLPLHLPGQKSPHRDPAPRGPARFLPLPGLPPALPEPPGILAPQPPDVGSSDPLSLVGPSQGRSPSCAS
B2: S{Beta-180}-[2-[2-[[2-[2-[2-[[2-[2-[2-[[(4S)-4-carboxy-4-(13-carboxytridecanoyl-amino)butanoyl]amino]ethoxy]ethoxy]acetyl]amino]ethoxy]ethoxy]acetyl]amino]-ethylamino]-2-oxoethyl]-Ala[Gln121,Leu168,Cy … (protein)
chain: B1 chain with C179Y, A180C
B3: S{Beta-181}-[2-[2-[[2-[2-[2-[[2-[2-[2-[[(4S)-4-carboxy-4-(17-carboxyheptadecanoyl-amino)butanoyl]amino]ethoxy]ethoxy]acetyl]amino]ethoxy]ethoxy]acetyl]amino]-ethylamino]-2-oxoethyl]-Ala[Gln121,Leu168, … (protein)
chain: B1 chain with C179Y, S181C
B4: S{Beta-181}-[2-[2-[[2-[2-[2-[[2-[2-[2-[[(4S)-4-carboxy-4-(11-carboxyundecanoyl-amino)butanoyl]amino]ethoxy]ethoxy]acetyl]amino]ethoxy]ethoxy]acetyl]amino]-ethylamino]-2-oxoethyl]-Ala[Gln121,Leu168,Cys … (protein)
chain: B1 chain with C179Y, S181C
B5: S{Beta-181}-[2-[2-[[2-[2-[2-[[2-[2-[2-[[(4S)-4-carboxy-4-(19-carboxynonadecanoyl-amino)butanoyl]amino]ethoxy]ethoxy]acetyl]amino]ethoxy]ethoxy]acetyl]amino]-ethylamino]-2-oxoethyl]-Ala[Gln121,Leu168,C … (protein)
chain: B1 chain with C179Y, S181C
B6: S{Beta-180}-[2-[2-[[2-[2-[2-[[2-[2-[2-[[(4S)-4-carboxy-4-(11-carboxyundecanoyl-amino)butanoyl]amino]ethoxy]ethoxy]acetyl]amino]ethoxy]ethoxy]acetyl]amino]-ethylamino]-2-oxoethyl]-Ala[Gln121,Leu168,Cys … (protein)
chain: B1 chain with C179Y, A180C
B7: S{Beta-180}-[2-[2-[[2-[2-[2-[[2-[2-[2-[[(4S)-4-carboxy-4-(19-carboxynonadecanoyl-amino)butanoyl]amino]ethoxy]ethoxy]acetyl]amino]ethoxy]ethoxy]acetyl]amino]-ethylamino]-2-oxoethyl]-Ala[Gln121,Leu168,C … (protein)
chain: B1 chain with C179Y, A180C
B8: Ala[Gln121, Leu168]FGF21 (protein)
chain: AHPIPDSSPLLQFGGQVRQRYLYTDDAQQTEAHLEIREDGTVGGAADQSPESLLQLKALKPGVIQILGVKTSRFLCQRPDGALYGSLHFDPEACSFRELLLEDGYNVYQSEAHGLPLHLPGQKSPHRDPAPRGPARFLPLPGLPPALPEPPGILAPQPPDVGSSDPLSLVGPSQGRSPSYAS
modifications: N-terminal Ala
B9: S{Beta-180}-[2-[2-[[2-[2-[2-[[2-[2-[2-[[(4S)-4-carboxy-4-(17-carboxyheptadecanoyl-amino)butanoyl]amino]ethoxy]ethoxy]acetyl]amino]ethoxy]ethoxy]acetyl]amino]-ethylamino]-2-oxoethyl]-Ala[Gln121,Leu168, … (protein)
chain: HPIPDSSPLLQFGGQVRQRYLYTDDAQQTEAHLEIREDGTVGGAADQSPESLLQLKALKPGVIQILGVKTSRFLCQRPDGALYGSLHFDPEACSFRELLLEDGYNVYQSEAHGLPLHLPGQKSPHRDPAPRGPARFLPLPGLPPALPEPPGILAPQPPDVGSSDPLSLVGPSQGRSPSYC
B10: S{Beta-181}-[2-[2-[[2-[2-[2-[[2-[2-[2-[[(4S)-4-carboxy-4-(17-carboxyheptadecanoyl-amino)butanoyl]amino]ethoxy]ethoxy]acetyl]amino]ethoxy]ethoxy]acetyl]amino]-ethylamino]-2-oxoethyl]-Met[Cys181]FGF21 (protein)
chain: B8 chain with A1M, Q122N, L169M, S182C

Molecular target: FGF receptor/BKL complex
Assay: FGF receptor potency in an Erk phosphorylation assay in HEK293 overexpressing human BKL
Assay type: cell-based
Conditions: HEK293/BKL cells, pERK after 12 minutes, absence of HSA; read-out: EC50
In short: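 pERK after 12 min analogue exposure at 37° C. was quantified by AlphaScreen SureFire in lysates of beta-klotho-transfected HEK293 cells. Assay medium was DMEM with 0.02% Tween20, run both without albumin and with 0.1% final HSA to probe albumin binding. Cells were starved 2 h in basal medium first. Absolute EC50 reported.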

Sequence of FGF receptor/BKL complex (Q86Z14 whole entry, one chain of several): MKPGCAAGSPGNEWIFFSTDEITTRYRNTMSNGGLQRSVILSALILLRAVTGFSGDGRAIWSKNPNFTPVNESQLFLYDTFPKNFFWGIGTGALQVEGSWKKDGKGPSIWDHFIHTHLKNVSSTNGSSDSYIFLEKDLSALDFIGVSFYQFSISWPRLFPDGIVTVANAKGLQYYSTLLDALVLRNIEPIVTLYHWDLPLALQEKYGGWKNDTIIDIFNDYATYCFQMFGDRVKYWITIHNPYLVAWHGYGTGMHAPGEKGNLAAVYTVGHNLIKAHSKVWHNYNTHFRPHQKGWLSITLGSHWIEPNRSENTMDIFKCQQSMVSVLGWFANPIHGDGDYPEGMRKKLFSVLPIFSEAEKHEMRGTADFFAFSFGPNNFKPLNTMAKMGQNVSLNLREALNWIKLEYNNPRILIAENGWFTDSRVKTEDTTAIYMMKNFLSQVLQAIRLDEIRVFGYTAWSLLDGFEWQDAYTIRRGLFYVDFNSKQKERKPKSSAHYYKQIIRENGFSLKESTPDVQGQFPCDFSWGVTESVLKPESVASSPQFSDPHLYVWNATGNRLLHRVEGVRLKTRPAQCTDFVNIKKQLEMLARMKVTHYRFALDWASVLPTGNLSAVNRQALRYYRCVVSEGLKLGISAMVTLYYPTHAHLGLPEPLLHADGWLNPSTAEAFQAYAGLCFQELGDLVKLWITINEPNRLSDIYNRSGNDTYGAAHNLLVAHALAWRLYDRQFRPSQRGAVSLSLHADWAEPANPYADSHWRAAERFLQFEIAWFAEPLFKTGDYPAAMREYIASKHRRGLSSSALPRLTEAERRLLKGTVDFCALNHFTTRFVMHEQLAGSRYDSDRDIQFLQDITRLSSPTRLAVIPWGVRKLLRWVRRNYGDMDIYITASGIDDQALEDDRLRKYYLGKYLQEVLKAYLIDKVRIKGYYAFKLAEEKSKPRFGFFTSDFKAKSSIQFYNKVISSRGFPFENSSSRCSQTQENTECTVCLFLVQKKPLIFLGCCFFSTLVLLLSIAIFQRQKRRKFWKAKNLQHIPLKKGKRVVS

| Molecule | EC50 [nM] |
| --- | --- |
| B1 | 107 |
| B2 | 6 |
| B3 | 42 |
| B4 | 154 |
| B5 | 58 |
| B6 | 7 |
| B7 | 5 |
| B8 | 2 |
| B9 | 8 |

Same assay, conditions: HEK293/BKL cells, pERK after 12 minutes, presence of 0.1% HSA; read-out: EC50 (0.1% HSA)

| Molecule | EC50 [nM] |
| --- | --- |
| B1 | 134 |
| B2 | 6 |
| B3 | 170 |
| B4 | 137 |
| B5 | 434 |
| B6 | 4 |
| B7 | 133 |
| B9 | 20 |

Tested on: not listed separately
Assay: Pharmacokinetic study in mice (i.v.)
Conditions: terminal half-life, single intravenous dose of 20 mg/kg, lean C57bl mice
Method: This was done in a pharmacokinetic (PK) study, where the terminal half-life of the analogue in question was determined. By terminal half-life is meant the time it takes to halve a certain plasma concentration in the terminal elimination phase.
The pharmacokinetic profile of FGF21 analogues was tested in normal lean C57b1 mice, n =2-3 (approximately 30 grams). FGF21 compounds were dosed as a single intravenous dose of 20 mg/kg (approximately 5 ml/kg).
The plasma levels of the FGF21 compounds were determined using Fibroblast Growth Factor-21 Human ELISA (available from BioVendor, catalogue no. RD191108200R). The PC based software, WnNonLin version 6.3 from Pharsight Corportion, Cary N.C., was used for the pharmacokinetic calculation.

| Molecule | Half-life mice [h] |
| --- | --- |
| B2 | 1 |
| B3 | 14 |
| B4 | 1 |
| B5 | 19 |
| B6 | 1 |
| B10 | 12 |

Tested on: not listed separately
Assay: Pharmacokinetic study in mini pigs (i.v.)
Conditions: terminal half-life, female Gottingen mini pigs
Method: The purpose of this study was to determine the protraction in vivo of the FGF21 derivatives after i.v. administration to mini pigs and mice, i.e. the prolongation of their time in the body and thereby their time of action. This was done in a pharmacokinetic (PK) study, where the terminal half-life of the analogue in question was determined. By terminal half-life is meant the time it takes to halve a certain plasma concentration in the terminal elimination phase.
Female Gottingen mini pigs were obtained from Ellegaard Gottingen Minipigs (Dalmose, Denmark) approximately 7-14 months of age and weighing approximately 16-35 kg were used in the studies. The mini pigs were housed either individually (pigs with permanent catheters) or in a group and fed restrictedly once or twice daily with SDS mini pig diet (Special Diets Services, Essex, UK).
After at least 2 weeks of acclimatisation two permanent central venous catheters were implanted in vena cava caudalis or cranialis in each animal. The animals were allowed 1 week recovery after the surgery, and were then used for repeated pharmacokinetic studies with a suitable wash-out period between successive dosing.
Blood samples (for example 0.8 ml) were collected in EDTA (8 mM) coated tubes and then centrifuged at 4° C. and 1942G for 10 minutes. Blood samples were collected to adequately cover the full plasma concentration-time profile of the API. In example blood samples were collected at t=predose, 0.0833, 0.25, 0.5, 0.75, 1, 1.5, 2, 3, 4, 6, 8, 10, 24, 30, 48, 72, 96, 120, 144, 168, 192, 216, 240, 264 hours after dose.
Plasma was pipetted into Micronic tubes on dry ice, and kept at −20° C. until analysed for plasma concentration of the respective FGF-1 analogue using ELISA. Individual plasma concentration-time profiles were analyzed by a non-compartmental pharmacokinetic method in Phoenix v. 6.3 (Pharsight Inc., Mountain View, Calif., USA), or other relevant software for PK analysis, and the resulting terminal half-lives (harmonic mean) determined.

| Molecule | Half-life mini pigs [h] |
| --- | --- |
| B2 | 3 |
| B3 | 85 |

Molecular target: 3T3-L1 adipocytes (Mus musculus, UniProt P16092+Q99N32)
Assay: Glucose uptake in 3T3-L1 adipocytes
Assay type: cell-based
Conditions: stimulated 20 hours, 3H-deoxy-glucose
Method: The C-terminal modified analogues were tested for their ability to increase glucose uptake in 3T3-L1 mouse adipocytes. The following assay was used for determining the biological activity, or potency, of FGF21 analogues and derivatives of the invention.
The in vitro potency may also be determined in an assay with mouse 3T3-L1 adipocytes by testing the FGF21 analogues and derivatives for their ability to increase glucose uptake into adipocytes. Differentiated 3T3-L1 adipocytes endogenously express FGFR1c and BKL. The 3T3-L1 cells are unresponsive to FGF21 until after differentiated as differentiation lead to expression of the co-receptor BKL. Activation of the FGFR1 receptor/BKL complex increase the expression of glucose transporter 1 (GLUT1) and therefore FGF21 agonists will lead to an increased amount of glucose taken into the adipocytes in a dose responsive manner.
Mouse 3T3-L1 fibroblasts (e.g. available from ATCC, catalogue no. CL-173) were maintained in basal medium (DMEM (4500 mg/I Glucose) with 10% Fetal Bovine Serum (FBS) and 1% Penicillin/Streptomycin). The cells are not allowed to reach confluence and should be passed (transferred to new vials) before reaching approx. 60% of confluency (by visual inspection).
For the glucose uptake assay, cells were 15.000 cells/well in a 96 well plate (BIOCOAT), and when they reached confluency (high density, with a view to have differentiated adipose cells made), the medium was changed from basal medium to basal medium containing Troglitazone, IBMX, Dexamethasone (commercially available from, e.g., Sigma) and human insulin (commercially available from, e.g., Novo Nordisk A/S).
The cells were used 7-9, days after initiation of differentiation. The cells were stimulated with increasing concentrations (0-300 nM) of the FGF21 analogues or derivatives of the invention for 20 hours in basal medium. Before addition of 3H-deoxy-glucose (in what follows: the tracer) the cells were washed in warm (approximately 37° C.) assay buffer (PBS with 1 mM MgCl2 and 2 mM CaCl2), HEPES and 0.1% Human serum albumin) and the cells were incubated with the tracer for 1 hour. This incubation was terminated by washing twice in ice cold assay buffer. The cells were lysed with Triton X-100 and lysates transferred to a 96 wells plate, microscint-40 (commercially available from, e.g., Perkin Elmer) was added and amount of tracer counted in a TOP-counter (e.g. a Packard top-counter from Perkin Elmer). The EC50 and Emax of the FGF21 compound in question were calculated. The results which are shown in tables 4-5 below indicate the EC50 (potency) and Emax (efficacy) of the FGF21 analogues and derivatives, respectively.

Sequence of 3T3-L1 adipocytes (Q99N32 whole entry): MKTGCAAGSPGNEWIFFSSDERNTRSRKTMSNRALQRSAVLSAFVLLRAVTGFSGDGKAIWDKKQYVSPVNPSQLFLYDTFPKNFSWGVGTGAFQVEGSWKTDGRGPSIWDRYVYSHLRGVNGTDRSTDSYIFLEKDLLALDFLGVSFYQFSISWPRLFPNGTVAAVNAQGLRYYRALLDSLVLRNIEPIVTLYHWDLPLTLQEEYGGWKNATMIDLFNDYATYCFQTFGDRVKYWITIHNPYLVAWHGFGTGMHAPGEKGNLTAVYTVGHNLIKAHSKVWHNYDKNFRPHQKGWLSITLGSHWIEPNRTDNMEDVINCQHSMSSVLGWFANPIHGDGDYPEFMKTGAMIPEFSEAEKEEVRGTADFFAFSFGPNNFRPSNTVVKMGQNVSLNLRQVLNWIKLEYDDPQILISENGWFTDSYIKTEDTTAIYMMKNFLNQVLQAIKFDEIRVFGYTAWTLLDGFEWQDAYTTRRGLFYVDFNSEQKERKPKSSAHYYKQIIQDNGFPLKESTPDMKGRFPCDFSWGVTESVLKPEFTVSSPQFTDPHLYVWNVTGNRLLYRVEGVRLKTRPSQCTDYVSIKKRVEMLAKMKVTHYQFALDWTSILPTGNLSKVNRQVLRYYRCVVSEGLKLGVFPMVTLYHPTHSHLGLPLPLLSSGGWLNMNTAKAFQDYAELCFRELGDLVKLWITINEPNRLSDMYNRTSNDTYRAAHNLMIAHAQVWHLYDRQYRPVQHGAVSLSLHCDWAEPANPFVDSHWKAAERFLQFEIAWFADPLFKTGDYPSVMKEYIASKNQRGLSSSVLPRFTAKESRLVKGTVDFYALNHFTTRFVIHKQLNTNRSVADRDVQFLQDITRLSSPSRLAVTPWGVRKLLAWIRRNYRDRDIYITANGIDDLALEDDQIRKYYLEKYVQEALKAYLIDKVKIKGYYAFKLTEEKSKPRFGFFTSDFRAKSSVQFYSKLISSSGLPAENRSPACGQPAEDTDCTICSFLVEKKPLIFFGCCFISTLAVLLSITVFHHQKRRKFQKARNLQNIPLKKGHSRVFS
Sequence of 3T3-L1 adipocytes (P16092 22-822): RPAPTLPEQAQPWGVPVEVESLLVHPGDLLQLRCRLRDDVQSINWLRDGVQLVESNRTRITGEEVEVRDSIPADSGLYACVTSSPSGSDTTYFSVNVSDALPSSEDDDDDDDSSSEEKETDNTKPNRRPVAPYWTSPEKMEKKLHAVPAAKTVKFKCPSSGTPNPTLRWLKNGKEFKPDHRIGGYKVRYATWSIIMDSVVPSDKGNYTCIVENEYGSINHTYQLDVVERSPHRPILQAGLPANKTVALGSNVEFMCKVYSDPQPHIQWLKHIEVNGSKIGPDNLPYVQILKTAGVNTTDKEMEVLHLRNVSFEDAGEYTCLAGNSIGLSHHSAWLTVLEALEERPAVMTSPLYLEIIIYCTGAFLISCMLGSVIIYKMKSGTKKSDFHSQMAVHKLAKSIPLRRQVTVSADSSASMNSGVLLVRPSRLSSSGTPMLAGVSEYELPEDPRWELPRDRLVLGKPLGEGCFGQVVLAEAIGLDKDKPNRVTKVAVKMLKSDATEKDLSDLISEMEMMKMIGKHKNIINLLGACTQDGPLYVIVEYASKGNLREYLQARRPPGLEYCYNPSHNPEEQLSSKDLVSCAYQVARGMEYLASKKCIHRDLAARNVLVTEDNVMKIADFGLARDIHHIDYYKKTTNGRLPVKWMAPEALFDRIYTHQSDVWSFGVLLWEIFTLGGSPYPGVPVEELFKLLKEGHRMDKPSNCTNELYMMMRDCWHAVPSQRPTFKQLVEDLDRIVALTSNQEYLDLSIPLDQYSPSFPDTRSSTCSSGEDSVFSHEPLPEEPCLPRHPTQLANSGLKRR

| Molecule | EC50 [nM] | Glucose uptake Emax [%] |
| --- | --- | --- |
| B1 | 107 | 54 |
| B2 | 6.7 | 106 |
| B3 | 56 | 73 |
| B5 | 410 | 57 |
| B6 | 2.7 | 87 |
| B7 | 24 | 53 |
| B8 | 3.1 | 85 |
| B9 | 8 | 71 |

Tested on: not listed separately
Assay: Body weight reduction in lean mice
Assay type: in vivo, lean C57BL mice
Conditions: s.c. 1 mg/kg BID for 7 days, change from baseline day 1 to 7
Method: In order to determine the in vivo potency of the FGF21 derivatives the effect on body weight was studied in lean C57BL mice after subcutaneous (s.c.) administration. It has previously been shown that the weight loss induced by FGF21 in lean mice is predictive of the effect in obese mice and therefore lean mice are considered a good screening model.
The compounds were administered s.c. 1 mg/kg either once (QD) or twice (BID) daily in 10 mM phosphate, 2% (w/vol) glycerol, 500ppm (=0.05%) polysorbate 80, pH=8.15, (2 ml/kg) for 7 days (n=7-8). The respective vehicle treated groups (control) were treated with 10 mM phosphate, 2% (w/vol) glycerol, 500ppm (=0.05%) polysorbate 80, pH=8.15, (2 ml/kg) s.c. twice daily for 7 days (n=6-8). Body weight was measured before dosing and again after 7 days treatment.

| Molecule | Mean Δ body weight (%) |
| --- | --- |
| B2 | −3.09* % |
| B4 | 0.04% |
| B6 | −2.04% |
| B8 | −1.98** % |

Same assay, conditions: s.c. 1 mg/kg QD for 7 days, change from baseline day 1 to 7

| Molecule | Mean Δ body weight (%) |
| --- | --- |
| B2 | 1.85 |
